Results taken from US20050277575A1, “Therapeutic compositions and methods for treating diseases that involve angiogenesis” (priority 2004, published 2005).
Where “and” joins values, the source holds several entries; their conditions need not be identical. Equal entries are not always repeated. Where two headings read alike, the source gives them in different places. Where a SMILES comes first, the peptide text is derived from it.

Legend:
S100A4 [1] = target: T1, S100A4 (Homo sapiens, UniProt P26447); experiment: Modulation of S100A4 dependent tPA-mediated conversion of plasminogen to plasmin by peptides and chimera; type: biochemical; settings: for IC50: peptides titrated 0.1-100 μM, 1 μM S100A4, read-out: IC50 for inhibition of accelerating effect of S100A4 on t-PA-dependent conversion of plasminogen to plasmin
T1 construct: GST (N); made in house; host or cells: E. coli ER2507
T1 sequence (P26447 whole entry): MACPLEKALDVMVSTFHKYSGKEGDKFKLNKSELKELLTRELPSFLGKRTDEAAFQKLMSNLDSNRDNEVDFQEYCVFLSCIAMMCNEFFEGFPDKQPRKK
Experimental: (§1) The effects of peptide SEQ ID 6, peptide SEQ ID 38 and chimera SEQ ID 39 on acceleration oft-PA-mediated conversion of plasminogen to plasmin induced by S100A4 were measured. The kinetics of t-PA-mediated plasminogen activation were determined by measuring the amidolytic activity of plasmin formed during activation of plasminogen. All the experiments were done in 100 μl volume in 96-well plates in triplicates. Glu-plasminogen (Calbiochem) at the concentration of 100 nM was preincubated at 25° C. for 1 h in the presence or absence of 1 μM recombinant S100A4 in a buffer consisting of 50 mM Tris-HCl, pH 7.4, 100 mM NaCl and 5 mM CaCl2 or 5 mM EGTA. In some experiments, different concentrations of peptides or chimera were preincubated together with proteins. The reaction was initiated by addition of 5 nM t-PA (Calbiochem) and 125 μM chromogenic plasmin substrate, Chromozym PL (Roche). The reactions were monitored at 405 nm for 1.5 h in a SPECTRAmax PLUS^384 microplate spectrophotometer (Molecular Devices) under control of the SOFTmax PRO kinetic program (Molecular Devices). The initial rates of plasmin generation, during the first 10-15 min, were calculated using linear regression analysis of plots of A405 nm versus time 2. The initial rates of plasmin generation were reported in units (K) of A405 nm/min^2×10^3. […] The titration data were analyzed with the four-parameter logistic equation K=(A−D)/(1+(x/C)^B)D. If A, asymptotic minimum, =0, this equation is converted to the Michaelis-Menten equation K=D/(1+(C/[S])^B), where [S] is substrate concentration, D=Vmax, C=Km, and B is the Hill coefficient.
Peptides SEQ ID 6 and SEQ ID 38 inhibited the accelerating effect of S100A4 on t-PA-dependent conversion of plasminogen to plasmin in concentration—dependent manner.
On the other hand, chimera SEQ ID 39 additionally accelerated plasmin formation already accelerated by S100A4.

S100A4 [2] = target: T1, S100A4; experiment: Fluorescence polarization assay of peptide binding with S100A4; settings: for change of fluorescence polarization upon adding S100A4: same procedure and conditions as for SEQ ID NO 7
Experimental: The following working buffers have been prepared:
TBS-EGTA: 10 mM TRIS buffer containing 150 mM NaCl, 0.05% bovine serum albumine (BSA), 1 mM EGTA
TBS-Ca: 10 mM TRIS buffer containing 150 mM NaCl, 0.05% bovine serum albumine (BSA), 1 mM CaCl2
10 mM solution of peptide SEQ ID NO 7 in DMSO was diluted with in either TBS-EGTA or TBS-Ca to obtain final peptide concentration 20 nM. Samples of these peptide solutions were placed in 384 well plate (Costar No. 3710), 45 microliters per well. Fluorescence polarization of such samples was determined using Perkin Elmer Wallac EnVision 2100 Multilabel Reader equipped with excitation filter 485 nm and emission filters 535 nm for each channel.
S100A4 has been diluted by either TBS-EGTA or by TBS-Ca to obtain a series of solutions of such concentrations that after adding 5 microliters each solution to 45 microliter peptide samples the final concentration of S100A4 was one of following: 0, 10, 30, 100, 300, 1000, 3000, or 10000 nM. Each sample was prepared in triplicate. The samples were mixed carefully while adding the protein to the peptide, and then they were incubated for 1 h at room temperature. The fluorescence polarization of the samples was determined using the same conditions as for the peptide samples before adding S100A4, and the change of fluorescence polarization of the peptide SEQ ID NO 7 upon adding S100A4 was calculated individually for each sample. The results, average of triplicates, are presentsd on the FIG. 6. The apparent binding constant of peptide SEQ ID NO 7 binding to S100A4 is 236 nM.
The same procedure and conditions have been applied to test binding of peptide SEQ ID NO 9, and peptide SEQ ID NO 10, to S100A4.

[3] = tested on: Human cerebral endothelial cells (HCEC); experiment: Capillary tube formation in Matrigel, S100A4 induced angiogenesis; type: cell-based; settings: primary HCEC in Matrigel
From the text: Human cerebral endothelial cells (HCEC) were isolated using previously described protocols (Stanimirovic, D., P. Morley, et al. (1996). “Angiotensin II-induced fluid phase endocytosis in human cerebromicrovascular endothelial cells is regulated by the inositol-phosphate signaling pathway.” J Cell Physiol 169(3): 455-67.). Purity of HCEC cultures generated by these procedures was routinely assessed by the immunocytochemical staining for Factor VIII-related antigen and the lack of staining for smooth muscle β-actin, and is estimated to be >95%. The morphological, phenotypic, biochemical and functional characteristics of these HCEC cultures have been described in detail previously (Muruganandam, A., L. M Herx, et al. (1997). “Development of immortalized human cerebromicrovascular endothelial cell line as an in vitro model of the human blood-brain barrier.” Faseb J 11(13): 1187-97).
HCEC were seeded (8×10^4 cells) on a semi-solid basement membrane matrix, Matrigel™ (Collaborative Biomedical Products, Bedford, Mass.)-coated 24-well plates and exposed to serum-free media containing various treatments. […] Confocal apertures for each recorded wavelength were adjusted to a full width half maximum of 20 μm. […] Eight to 32 individual optical sections were collected and the average was calculated. […]

[4] = target: T2, t-PA-mediated plasminogen activation (Homo sapiens, UniProt P00750); experiment: t-PA-mediated plasminogen conversion kinetics with and without S100A4 (Example 12); type: biochemical
T2 construct: purchased Calbiochem
T2 sequence (P00750 36-562): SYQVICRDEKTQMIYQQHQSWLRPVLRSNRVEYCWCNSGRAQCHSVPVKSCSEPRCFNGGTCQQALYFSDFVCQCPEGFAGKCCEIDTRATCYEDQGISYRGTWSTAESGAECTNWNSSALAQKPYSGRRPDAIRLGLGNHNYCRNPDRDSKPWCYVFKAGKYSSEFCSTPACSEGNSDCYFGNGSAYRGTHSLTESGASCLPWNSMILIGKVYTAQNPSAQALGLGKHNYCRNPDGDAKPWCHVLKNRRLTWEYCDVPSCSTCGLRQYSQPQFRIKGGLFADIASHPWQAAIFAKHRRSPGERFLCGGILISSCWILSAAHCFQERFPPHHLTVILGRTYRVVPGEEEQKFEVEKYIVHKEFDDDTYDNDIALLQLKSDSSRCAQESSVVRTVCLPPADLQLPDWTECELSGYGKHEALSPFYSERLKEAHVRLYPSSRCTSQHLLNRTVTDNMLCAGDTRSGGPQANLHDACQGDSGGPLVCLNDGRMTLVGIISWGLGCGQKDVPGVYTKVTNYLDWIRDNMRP
Experimental: as §1
The addition of S100A4 to basal reaction (t-PA plus plasminogen) produced a significant increase in the plasminogen conversion rate. […] The stimulation of the plasminogen conversion by S100A4 was concentration-dependent with the half-maximal effect at 2.4 μM.
The kinetic parameters of t-PA-mediated plasminogen conversion were evaluated in the presence and absence of S100A4 as a function of plasminogen concentrations ranging from 3 nM to 3 μM.

[5] = target: T2, t-PA-mediated plasminogen activation; experiment: t-PA-dependent conversion of plasminogen to plasmin, effect of S100A4 (Example 11); type: biochemical; settings: with or without 2.5 μM S100A4; for Vmax: 150 nM plasminogen, 5 nM t-PA
Experimental: Non-active plasminogen can be converted to active protease plasmin by tissue type (t-PA) or urokinase type (u-PA) plasminogen activators. Except for its well-known fibrinolytic activity, plasmin also directly and indirectly, by activation of matrix metalloproteinases (MMPs), participates in the degradation of extracellular matrix that is important for the angiogenesis and tumor invasion. The kinetics of t-PA-mediated plasminogen activation was determined by measuring amidolytic activity of the plasmin generated during plasminogen activation. The reaction was performed with the plasmin substrate Chromozyme PL, tosyl-glycyl-prolyl-lysin-4-nitranilide-acetate (Roche) in the final concentration of 125 μM in a buffer consisting of 50 mM Tris-HCl, pH 7.4, 100 mM NaCl, 5 mM of CaCl2 or 5 mM of EGTA, and 150 nM of [Glu] plasminogen (Calbiochem). The reaction was preincubated with or without 2.5 μM S100A4 at 24 C° for 1 h in 96-well plates. The reaction was initiated by addition of t-PA (Calbiochem) up to 5 nM concentration, final volume 100 μl. Kinetic of substrate hydrolysis was measured at 2 min intervals at 405 nm in Spectramax Plus 384 spectrophotometer (Molecular Devices). Analysis of kinetics curves (Vmax, time to Vmax, and initial slope of kinetic data converted to A405 versus time^2) was performed with the help of Softmax PRO program (Molecular Devices).
Kinetics of plasminogen to plasmin conversion consists of three parts. As shown in FIG. #3 curves 1 and 2 for t-PA, during first 1500 s the reaction is second order that corresponds to conversion of plasminogen to plasmin and consequent cleavage of chromogenic substrate by plasmin. The second part of reaction is linear, for which Vmax can be calculated. It starts after total conversion of plasminogen to plasmin and corresponds to cleavage of chromogenic substrate by plasmin with constant rate. In the third part of reaction, after 2700 s, the reaction is slowing down that corresponds to depletion of chromogenic substrate and finally the reaction reaches a plateau when all substrate is cleaved. As follows from the comparison of curves 1 and 2, t-PA along converted plasminogen to plasmin equally efficiently in the presence or absence of calcium. Neither conversion of plasminogen to plasmin took place in the absence of t-PA no S110A4 induced such conversion by itself, curves 5 and 6. In the presence of S100A4 linear part of reaction starts substantially earlier, which means that total conversion of plasminogen to plasmin was accelerated. Kinetic parameters for t-PA along and for combination of t-PA with S100A4 are represented in Table 4. […] S100A4 accelerated conversion of plasminogen to plasmin in calcium independent manner, curves 3 and 4.

In the case of `CSCC[C@@H](NC(=O)[C@@H](CCC(=O)O)NC(=O)[C@@H](CCCNC(=N)N)NC(=O)[C@@H](Cc1c[nH]c2ccccc12)NC(=O)CNC(=O)[C@@H](C)NC(C)=O)C(=O)N[C@H](Cc1ccc(O)cc1)C(=O)N[C@H](CO)C(=O)N[C@H](C)C(=O)N[C@H](CC(C)C)C(=O)N[C@H](CO)C(=O)N[C@@H](C)C(=O)N[C@@H](CO)C(=O)N[C@H](Cc1ccc(O)cc1)C(=O)N[C@@H](C(=O)N[C@H](CCC(=O)O)C(=O)N[C@H](CCCNC(=N)N)C(=O)N[C@H](CC(C)C)C(N)=O)C(C)C` [SEQ ID 38, Ac-aGwremysalsASyverl-amide] (HELM PEPTIDE1{[ac].[dA].G.[dW].[dR].[dE].[dM].[dY].[dS].[dA].[dL].[dS].A.S.[dY].[dV].[dE].[dR].[dL].[am]}$$$$V2.0), the “effect on S100A4 acceleration at 15 μM peptide” value (S100A4 [1]) is reported as “totally neglected the effect of S100A4” and the IC50 (S100A4 [1]) is reported as 3.5 µM.
`CSCC[C@H](NC(=O)[C@H](Cc1ccc(O)cc1)NC(=O)[C@H](CO)NC(=O)[C@H](C)NC(=O)[C@H](CC(C)C)NC(=O)[C@H](CO)NC(=O)[C@H](C)NC(=O)CNC(=O)[C@H](Cc1ccc(O)cc1)NC(=O)[C@@H](NC(=O)[C@H](CCC(=O)O)NC(=O)[C@H](CCCNC(=N)N)NC(=O)[C@H](CC(C)C)NC(=O)CNC(=O)[C@H](C)NC(=O)c1ccc2c(c1)C(=O)OC21c2ccc(O)cc2Oc2cc(O)ccc21)C(C)C)C(=O)N[C@@H](CCC(=O)O)C(=O)N[C@@H](CCCNC(=N)N)C(=O)N[C@@H](Cc1c[nH]c2ccccc12)C(N)=O` [SEQ ID NO 7, Fam-AGLREVYGASLASYMERW-amide] (HELM PEPTIDE1{[O=C1OC2(c3ccc(O)cc3Oc3cc(O)ccc32)c2ccc(C(=O)[*:2])cc21].A.G.L.R.E.V.Y.G.A.S.L.A.S.Y.M.E.R.W.[am]}$$$$V2.0) was tested, and the Kd (S100A4 [2]; 20 nM peptide, S100A4 0-10000 nM, 1 h room temperature, TBS-EGTA or TBS-Ca, read-out: apparent binding constant of peptide binding to S100A4) was 0.236 µM.
“Ac-AGLREVYGASLASYMERW-NH2 [SEQ ID 6, Ac-AGLREVYGASLASYMERW-amide]” was tested, and the “inhibition of S100A4-induced formation of capillary-like tubes” value [3] was “completely inhibit”, the “effect on S100A4 acceleration at 15 μM peptide” value (S100A4 [1]) was “totally neglected the effect of S100A4” and the IC50 (S100A4 [1]) was 6 µM.
Work on “t-PA: tissue type plasminogen activator (Calbiochem); basal reaction with plasminogen” yielded a Vmax ([4]; plasminogen 3 nM to 3 μM, presence of EGTA) of 1.18, a Km ([4]; plasminogen 3 nM to 3 μM, presence of EGTA, read-out: Km) of 0.429 µM and a Km ([4]; plasminogen 3 nM to 3 μM, read-out: Km of the t-PA-mediated plasminogen conversion) of 0.429 µM. The “Increase in t-PA activity” value ([4]; presence of EGTA) was 1, the Vmax ([5]; Ca (5 mM CaCl2)) was 7.152 ± 0.130 ΔA405/t(min) * 1000 and the “Slope (initial rate of plasmin generation)” value ([5]; Ca (5 mM CaCl2)) was 0.078 ΔA405/t^2(min^2) * 1000 and 0.078 ± 0.007 ΔA405/t^2(min^2) * 1000. The “Time to Vmax” value ([5]; Ca (5 mM CaCl2)) was 2200 s and 2200 ± 69 s, the Vmax ([5]; EGTA (5 mM)) was 8.589 ± 0.342 ΔA405/t(min) * 1000 and the “Slope (initial rate of plasmin generation)” value ([5]; EGTA (5 mM)) was 0.080 ± 0.008 ΔA405/t^2(min^2) * 1000. The “Time to Vmax” value ([5]; EGTA (5 mM)) was 2102 ± 69 s.
With “Fam-aGwremysalsASyverl-amide [SEQ ID NO 10]” the “change of fluorescence polarization upon adding S100A4” value (S100A4 [2]) was “No change of fluorescence polarization has been detected”.
In the case of “Fam-aGlrevyGASlASymerw-amide [SEQ ID NO 9]”, the “change of fluorescence polarization upon adding S100A4” value (S100A4 [2]) is reported as “No change of fluorescence polarization has been detected”.
